# Source: patent publication US11707527B2, “Nanoscale drug carrier capable of passing through blood-brain barrier” (KUNSHAN XINYUNDA BIOTECH CO., LTD., priority 2017, dated 2023)
# B1: chimeric human H-ferritin: human L-ferritin with outer surface sequences replaced with SEQ ID NO: 1-3 of H-ferritin; SEQ ID NO: 7 (protein)
# chain: MTSQVRQNYHQDSEAAINRQINLELYASYVYLSMSYYFDRDDVALEGVSHFFRELAEEKREGYERLLKMQNQRGGRIFLQDIKKPDCDDWESGLNAMECALHLEKNVNQSLLELHKLATDKNDPHLCDFLETHFLDEEVKLIKKMGDHVTNLRKMGAPESGLAEYLFERLTLKHD
# modifications: chimeric human H ferritin
# Key:
# [1] = tested on: human BBB brain endothelial hCMEC/D3 cells; assay: Specific binding of FITC-labeled ferritin to human brain endothelial cells (flow cytometry); assay type: cell-based; conditions: 50 μg/ml FITC-labeled protein, 45 min, 4° C., hCMEC/D3, vs FITC-BSA
# Experimental: Human BBB brain endothelial hCMEC/D3 cells were cultured to about 1×10^5 (100×20 mm, dish Corning, USA) and digested with trypsin, then the cells were washed with 0.3% (w/v) BSA/PBS (pH7.4) for three times. […] The cells were washed with 0.3% BSA/PBS for three times, finally resuspended in PBS (pH7.4). And fluorescence of the samples was tested by flow cytometry (at a wavelength of 488 nm).
# [2] = tested on: human BBB brain endothelial cells hCMEC/D3; assay: Endocytosis and lysosome co-localization in human brain endothelial cells (confocal microscopy); assay type: cell-based; conditions: hCMEC/D3, 4 h incubation
# Experimental: Human BBB brain endothelial cells hCMEC/D3 slides (BD Biosciences) were placed in a 6-well plate (with well diameter of 34.8 mm, Corning, USA) for culturing above to a density of about 60%, then the experiment was conducted. 1 μM FITC-labeled H-ferritin above was added, and incubated respectively for 5 min and 6 min at 37° C. Then the cells were washed with 0.3% BSA/PBS for three times, and finally fixed with 4% paraformaldehyde. After being washed with PBS (pH7.4) for three times, cell nuclei were stained with DAPI (Roche Applied Science) 10 min at room temperature. After being washed by PBS for three times again, the slides were mounted with a mounting medium, and observed by laser confocal microscopy (Olympus FluoView FV-1000, Tokyo, Japan).
# Human BBB brain endothelial cells hCMEC/D3 slides (BD Biosciences) were placed in a 6-well plate for culturing to a density of about 60%, and then the experiment was conducted. […] The cells were fixed with 4% paraformaldehyde after being washed with PBS for three times. Then 0.1% Triton X-100 was used for cell permeabilization After being washed with PBS again, the cells were blocked in 5% goat serum (ZSGB-BIO) 30 min at room temperature, and then incubated in Alexa Fluor®555-labeled antibodies and lysosome marker molecules LAMP1 (1:200, clone H4A3; Invitrogen) for 1 h at 37° C. […]
# hCMEC/D3 BBB model = assay: In vitro BBB model (Transwell) transcytosis; assay type: in vitro ADME, human; conditions: 50 μg/mL FITC-labeled, 6 h, upper to lower chamber
# Experimental: The cells were cultured at 37° C. under CO2 in an incubator to confluence (2-3d). After the confluence state of hCMEC/D3 was observed by a microscope, medium (EBM-2 medium) was added to an upper chamber of the Transwell plate, resulting a more than 0.5 cm difference of liquid level between the upper and lower chamberst. If an obvious difference between the two chambers can be still observed after 4 h, it was regarded as completely confluent. The wells of Transwell without inoculated cells were used as a blank control.
# Equal amount (50 μg/mL) of FITC-labeled H-ferritins and the control FITC-labeled BSA were dissolved in EBM-2 medium (Gibco Life Technologies Inc., UK). […] The total volume (V) of the lower chamber was measured after being cultured for 6 h in a cell incubator. And then, 50 μL samples were respectively taken out of the lower chamber, and H-ferritin or BSA concentration (C) was measured by measuring fluorescence intensity (wavelength 488 nm). Afterwards, transcytosis efficiency was calculated according to the following formula: transcytosis efficiency %=(Clower chamber×Vlower chamber)/(Cinitial×Vinitial)×100%.
molecule,measurement,setting,value
B1,specific binding with human brain endothelial cells,[1],can still achieve specific binding
same,entering / co-localization with lysosome (LAMP1) in brain endothelial cells,[2],did not co-localize with the lysosome
same,crossing the in vitro BBB model (transcytosis efficiency),hCMEC/D3 BBB model,can significantly cross the blood brain barrier
